# According to IntAct's records for PubMed 11231056:
# B1: Platelet-activating factor acetylhydrolase IB subunit beta (Mus musculus), P63005 (parent)
# chain: MVLSQRQRDELNRAIADYLRSNGYEEAYSVFKKEAELDMNEELDKKYAGLLEKKWTSVIRLQKKVMELESKLNEAKEEFTSGGPLGQKRDPKEWIPRPPEKYALSGHRSPVTRVIFHPVFSVMVSASEDATIKVWDYETGDFERTLKGHTDSVQDISFDHSGKLLASCSADMTIKLWDFQGFECIRTMHGHDHNVSSVAIMPNGDHIVSASRDKTIKMWEVQTGYCVKTFTGHREWVRMVRPNQDGTLIASCSNDQTVRVWVVATKECKAELREHEHVVECISWAPESSYSSISEATGSETKKSGKPGPFLLSGSRDKTIKMWDVSTGMCLMTLVGHDNWVRGVLFHSGGKFILSCADDKTLRVWDYKNKRCMKTLNAHEHFVTSLDFHKTAPYVVTGSVDQTVKVWECR
# partner: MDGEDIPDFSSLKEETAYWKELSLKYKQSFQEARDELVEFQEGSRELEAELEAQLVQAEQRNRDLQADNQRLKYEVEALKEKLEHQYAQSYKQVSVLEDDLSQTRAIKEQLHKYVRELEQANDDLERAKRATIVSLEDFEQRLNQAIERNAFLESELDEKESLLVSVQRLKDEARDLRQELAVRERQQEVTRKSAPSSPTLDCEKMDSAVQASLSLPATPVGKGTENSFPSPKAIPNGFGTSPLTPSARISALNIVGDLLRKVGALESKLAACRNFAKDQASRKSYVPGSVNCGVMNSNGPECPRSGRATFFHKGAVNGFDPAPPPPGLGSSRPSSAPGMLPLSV
# Variants of: B1
# Conditions: with ndel1_mouse Ndel1, Q9ERR1
row,effect of a mutation on the interaction,Variant
1,disrupting interaction,H149R
2,disrupting interaction,S152W
3,disrupting interaction,S169P
